In patent US5786191A, “Cloning and expression of complementary DNAs for multiple members of the human cytochrome P450 2C subfamily” (priority 1994, dated 1998):

B1: 2C18-Thr^385 (29c): recombinant 2C18 allelic variant 29c (Thr 385) in yeast microsomes; Table III does not state residue 2 (protein, UniProt P33260 26-490, looked up)
Cytochrome P450 2C18: RGRLPSGPTPLPIIGNILQLDVKDMSKSLTNFSKVYGPVFTVYFGLKPIVVLHGYEAVKEALIDHGEEFSGRGSFPVAEKVNKGLGILFSNGKRWKEIRRFCLMTLRNFGMGKRSIEDRVQEEARCLVEELRKTNASPCDPTFILGCAPCNVICSVIFHDRFDYKDQRFLNLMEKFNENLRILSSPWIQVCNNFPALIDYLPGSHNKIAENFAYIKSYVLERIKEHQESLDMNSARDFIDCFLIKMEQEKHNQQSEFTVESLIATVTDMFGAGTETTSTTLRYGLLLLLKYPEVTAKVQEEIECVVGRNRSPCMQDRSHMPYTDAVVHEIQRYIDLLPTNLPHAVTCDVKFKNYLIPKGTTIITSLTSVLHNDKEFPNPEMFDPGHFLDKSGNFKKSDYFMPFSAGKRMCMGEGLARMELFLFLTTILQNFNLKSQVDPKDIDITPIANAFGRVPPLYQLCFIPV
B2: 2C18-Asp^2 Thr^385 (29c-1a): recombinant human P450 2C18 allelic variant 29c with correct Asp at position 2, Thr at 385 (protein, UniProt P33260 26-490, looked up)
Cytochrome P450 2C18: B1 Cytochrome P450 2C18
B3: 2C8 Purified from Human Liver: cytochrome P450 2C8 purified from human liver microsomes (protein, UniProt P10632 1-490, looked up)
Cytochrome P450 2C8: MEPFVVLVLCLSFMLLFSLWRQSCRRRKLPPGPTPLPIIGNMLQIDVKDICKSFTNFSKVYGPVFTVYFGMNPIVVFHGYEAVKEALIDNGEEFSGRGNSPISQRITKGLGIISSNGKRWKEIRRFSLTTLRNFGMGKRSIEDRVQEEAHCLVEELRKTKASPCDPTFILGCAPCNVICSVVFQKRFDYKDQNFLTLMKRFNENFRILNSPWIQVCNNFPLLIDCFPGTHNKVLKNVALTRSYIREKVKEHQASLDVNNPRDFIDCFLIKMEQEKDNQKSEFNIENLVGTVADLFVAGTETTSTTLRYGLLLLLKHPEVTAKVQEEIDHVIGRHRSPCMQDRSHMPYTDAVVHEIQRYSDLVPTGVPHAVTTDTKFRNYLIPKGTTIMALLTSVLHDDKEFPNPNIFDPGHFLDKNGNFKKSDYFMPFSAGKRICAGEGLARMELFLFLTTILQNFNLKSVDDLKNLNTTAVTKGIVSLPPSYQICFIPV
B4: 2C19: human cytochrome P450 2C19 polypeptide, clone 11a, SEQ ID NO:1, expressed recombinantly in yeast (protein)
chain: MDPFVVLVLCLSCLLLLSIWRQSSGRGKLPPGPTPLPVIGNILQIDIKDVSKSLTNLSKIYGPVFTLYFGLERMVVLHGYEVVKEALIDLGEEFSGRGHFPLAERANRGFGIVFSNGKRWKEIRRFSLMTLRNFGMGKRSIEDRVQEEARCLVEELRKTKASPCDPTFILGCAPCNVICSIIFQKRFDYKDQQFLNLMEKLNENIRIVSTPWIQICNNFPTIIDYFPGTHNKLLKNLAFMESDILEKVKEHQESMDINNPRDFIDCFLIKMEKEKQNQQSEFTIENLVITAADLLGAGTETTSTTLRYALLLLLKHPEVTAKVQEEIERVIGRNRSPCMQDRGHMPYTDAVVHEVQRYIDLIPTSLPHAVTCDVKFRNYLIPKGTTILTSLTSVLHDNKEFPNPEMFDPRHFLDEGGNFKKSNYFMPFSAGKRICVGEGLARMELFLFLTFILQNFNLKSLIDPKDLDTTPVVNGFASVPPFYQLCFIPV
B5: 2C9: recombinant human P450 2C9, allele not specified in the sentence (protein, UniProt P11712 1-490, looked up)
Cytochrome P450 2C9: MDSLVVLVLCLSCLLLLSLWRQSSGRGKLPPGPTPLPVIGNILQIGIKDISKSLTNLSKVYGPVFTLYFGLKPIVVLHGYEAVKEALIDLGEEFSGRGIFPLAERANRGFGIVFSNGKKWKEIRRFSLMTLRNFGMGKRSIEDRVQEEARCLVEELRKTKASPCDPTFILGCAPCNVICSIIFHKRFDYKDQQFLNLMEKLNENIKILSSPWIQICNNFSPIIDYFPGTHNKLLKNVAFMKSYILEKVKEHQESMDMNNPQDFIDCFLMKMEKEKHNQPSEFTIESLENTAVDLFGAGTETTSTTLRYALLLLLKHPEVTAKVQEEIERVIGRNRSPCMQDRSHMPYTDAVVHEVQRYIDLLPTSLPHAVTCDIKFRNYLIPKGTTILISLTSVLHDNKEFPNPEMFDPHHFLDEGGNFKKSKYFMPFSAGKRICVGEALAGMELFLFLTSILQNFNLKSLVDPKNLDTTPVVNGFASVPPFYQLCFIPV
B6: 2C9-Ile^359 (65): recombinant human P450 2C9 allelic variant, clone 65 (protein, UniProt P11712 1-490, looked up)
Cytochrome P450 2C9: B5 Cytochrome P450 2C9
B7: 2C9 Purified from Human Liver: cytochrome P450 2C9 purified from human liver microsomes (protein, UniProt P11712 1-490, looked up)
Cytochrome P450 2C9: B5 Cytochrome P450 2C9

Experiments:
Type in all cases: biochemical
[1] = Mephenytoin 4'-hydroxylase assay, recombinant human CYP2C yeast microsomes, S-enantiomer; conditions: for R/S Ratio of mephenytoin 4'-hydroxylase activity: recombinant yeast microsomes (Table III); for Mephenytoin 4'-Hydroxylase Activity, S: yeast microsomes + P450 reductase, phospholipid, cytochrome b5 2:1, 37° C., 30 min, liver microsomes unfortified, phosphate buffer
Description: (§1) Purified or recombinant yeast microsomes (10-50 pmol) were preincubated with dilauroylphosphatidylcholine (15 μg per 50 pmol P450), P450 reductase (500 U per 50 mol P450), and human cytochrome b5 (2:1 molar ratio when added). The reconstituted mixture was preincubated for 5 min at 37° C., and then placed on ice. […] The mixture was then incubated at 37° with shaking for 3 min, and the reaction started with the addition of 2 mM NADPH and terminated after 30 min with an equal volume of methanol. […] Reaction volumes were generally 0.25 ml except when the volume of recombinant purified cytochrome or yeast microsomes was greater than 50 μl. In these cases, the volume was increased to 0.5 ml to limit the volume of glycerol from the purified preparation to <4% of the final volume.
(§2) At the end of the incubation period, the reactions were terminated with an equal volume of methanol. The incubation mixture was centrifuged at 10,000 g for 10 min and an aliquot assayed directly using HPLC without extraction. Samples with particularly low activity were concentrated by lyophilization and redissolved in a small volume of methanol:water (1:1) before assay. The HPLC system consisted of a reverse phase C18 (10 μm) Versapak, 300 mm×4.1 mm column (Altech Associates, Deerfield, Ill.) using an isocratic solvent consisting of methanol:water (45:55) with a flow rate was kept of 1 ml/min for 25 min.

[2] = Mephenytoin 4'-hydroxylase assay, recombinant human CYP2C yeast microsomes, R-enantiomer; conditions: yeast microsomes + P450 reductase, phospholipid, cytochrome b5 2:1; 0.4 mM substrate; 37° C., 30 min; liver microsomes unfortified, phosphate buffer; means ± SE
Description: as §1, §2

[3] = Mephenytoin 4'-hydroxylase assay, purified recombinant P450s in reconstituted system, S-enantiomer; conditions: for R/S Ratio of mephenytoin 4'-hydroxylase activity: purified P450s (Table IV); for Mephenytoin 4'-Hydroxylase Activity, S: purified P450s, triplicate, means ± SE, blank not subtracted
Description: as §1, §2

[4] = Mephenytoin 4'-hydroxylase assay, purified recombinant P450s in reconstituted system, R-enantiomer; conditions: triplicate, means ± SE, blank not subtracted
Description: as §1, §2

[5] = Tolbutamide hydroxylase assay, recombinant human CYP2C yeast microsomes; conditions: for Tolbutamide Hydroxylase Activity per mg protein: 1 mg yeast microsomal protein + P450 reductase, or 0.2 mg liver microsomal protein without reductase; for Tolbutamide Hydroxylase Activity per mg protein / Tolbutamide Hydroxylase Activity per nmol P450: means ± SE; for Tolbutamide Hydroxylase Activity per nmol P450: adjusted for P450 content
Description: Yeast microsomes (1 mg protein) were preincubated with 300 pmol hamster P450 reductase in 0.2 ml of the incubation buffer (below) for 3 min at 37° C. The reaction was then placed on ice and incubated in 0.2 ml of 50 mM HEPES buffer (pH 7.4) containing 1.5 mM MgCl2, 0.1 mM EDTA in a final volume of 1 ml and 1 mM sodium tolbutamide. The reaction was initiated with 0.5 mM NADPH. Human liver microsomes (0.22 mg protein) were incubated without reductase. Incubations with reconstituted recombinant P450s contained 50 pmol purified P450 enzyme, 150 pmol P450 reductase, and 15 μg dilauroylphosphatidylcholine, and were performed in 100 mM potassium phosphate buffer (pH 7.4). Reactions were terminated after 60 min at 37° C. by the addition of 50 μl of 4N HCl, followed by extraction with 3 ml of water-saturated ethyl acetate. […] The column eluate was monitored at 230 nm and rates of product formation were determined from standard curves prepared by adding varying amounts of 4-hydroxytolbutamide to incubations conducted without NADPH. […] Samples were analyzed in triplicate.

[6] = Tolbutamide hydroxylase assay, purified reconstituted P450s; conditions: blank (22 ± 5) subtracted, means ± SE
Description: Tolbutamide hydroxylase activity was measured according to Knodell et al., J. Pharmacol. Exper. Ther. 241:1112-1119 (1987), with several modifications. Yeast microsomes (1 mg protein) were preincubated with 300 pmol hamster P450 reductase in 0.2 ml of the incubation buffer (below) for 3 min at 37° C. The reaction was then placed on ice and incubated in 0.2 ml of 50 mM HEPES buffer (pH 7.4) containing 1.5 mM MgCl2, 0.1 mM EDTA in a final volume of 1 ml and 1 mM sodium tolbutamide. The reaction was initiated with 0.5 mM NADPH. Human liver microsomes (0.22 mg protein) were incubated without reductase. Incubations with reconstituted recombinant P450s contained 50 pmol purified P450 enzyme, 150 pmol P450 reductase, and 15 μg dilauroylphosphatidylcholine, and were performed in 100 mM potassium phosphate buffer (pH 7.4). Reactions were terminated after 60 min at 37° C. by the addition of 50 μl of 4N HCl, followed by extraction with 3 ml of water-saturated ethyl acetate. The ethyl acetate extracts were dried under nitrogen at 40° C., the residue resolubilized in 200 μl methanol, and 4-hydroxytolbutamide then assayed using HPLC by injecting 50 μl of the solubilized extract onto a μBONDAPAK C18 column (4.6×300 mm) using 0.05% phosphoric acid, pH 2.6: acetonitrile (6:4, v/v) as the mobile phase with a flow rate of 1 ml/min. The column eluate was monitored at 230 nm and rates of product formation were determined from standard curves prepared by adding varying amounts of 4-hydroxytolbutamide to incubations conducted without NADPH. […] Samples were analyzed in triplicate.

Molecule	R/S Ratio of mephenytoin 4'-hydroxylase activity [1]	Mephenytoin 4'-Hydroxylase Activity, S ([1]; 0.4 mM substrate, means ± SE)	Mephenytoin 4'-Hydroxylase Activity, R [2]	R/S Ratio of mephenytoin 4'-hydroxylase activity [3]	Mephenytoin 4'-Hydroxylase Activity, S ([3]; reconstituted system)	Mephenytoin 4'-Hydroxylase Activity, R [4]	Tolbutamide Hydroxylase Activity per mg protein [5]	further results
B1	1.3	0.042 ± 0.004 nmol/min/nmol P450	0.054 ± 0.003 nmol/min/nmol P450					Mephenytoin 4'-Hydroxylase Activity, S, no b5 ([1]; yeast microsomes without cytochrome b5, 0.4 mM substrate, means ± SE): 0.034 ± 0.008 nmol/min/nmol P450
B2				1.3	0.116 ± 0.010 nmol/min/nmol P450	0.147 ± 0.025 nmol/min/nmol P450	9.3 ± 0.7 nmol/min/mg protein	Tolbutamide Hydroxylase Activity per nmol P450 [5]: 0.19 ± 0.02 nmol/min/nmol P450
B3				1.6	0.032 ± 0.003 nmol/min/nmol P450	0.051 ± 0.030 nmol/min/nmol P450		
B4	0.03	~ 5 nmol/min/nmol P450	0.014 ± 0.02 nmol/min/nmol P450	0.03	6.17 ± 0.24 nmol/min/nmol P450	0.19 ± 0.04 nmol/min/nmol P450	18.4 ± 2.4 nmol/min/mg protein	Rate of S-hydroxylation relative to R-hydroxylation of mephenytoin ([1]; stereospecificity, yeast microsomes): at least 30 fold; Mephenytoin 4'-Hydroxylase Activity, S ([1]; 0.4 mM substrate, means ± SE, listed as 2C19 (11a)): 4.6 ± 0.3 nmol/min/nmol P450; S-mephenytoin 4'-hydroxylation turnover relative to human liver microsomes ([3]; fold higher than human liver microsomes): at least 10 times; S-mephenytoin 4'-hydroxylation turnover relative to recombinant 2C9, 2C18 or 2C8 ([3]; purified, reconstituted system): 50-100 times; S-mephenytoin 4'-hydroxylase turnover relative to P450MP purified from human liver ([3]; vs literature value of Srivastava et al.): ~ 30 times
B5		0.02 nmol/min/nmol P450						Turnover number of recombinant 2C9 relative to 2C9 purified from human liver ([3]; S-mephenytoin 4'-hydroxylation): ~ 100 times
B6	0.9	0.043 ± 0.000 nmol/min/nmol P450	0.041 ± 0.005 nmol/min/nmol P450	0.77	0.081 ± 0.006 nmol/min/nmol P450	0.063 ± 0.003 nmol/min/nmol P450	169.8 ± 7.4 nmol/min/mg protein	Tolbutamide Hydroxylase Activity [6]: 122 + 29 pmol/min/nmol P450; Tolbutamide Hydroxylase Activity per nmol P450 [5]: 3.4 ± 0.15 nmol/min/nmol P450; Tolbutamide turnover number of Ile^359 allele relative to Leu^359 allele of 2C9 ([5]; recombinant microsomes adjusted for P450 content): 3 fold
B7				1.6	0.033 ± 0.001 nmol/min/nmol P450	0.051 ± 0.007 nmol/min/nmol P450		Tolbutamide Hydroxylase Activity [6]: 109 ± 16 pmol/min/nmol P450
